From US20250270306A1 (OSPEDALE SAN RAFFAELE S R L, published 2025)
Residue numbers refer to the chain shown, from its start.

B1: YU139-C01 (Fc fusion)
VH: QVQLVQSGAEVKKPGASVKVSCKASGYTFTSYGISWVRQAPGQGLEWMGWINTYNGNTNYAQKLQGRVTMTTDTSTTTAYMELRSLRSDDTAVYYCARDIGYSGSYYSPYYYYGMDVWGQGTTVTVSS
VL: SSELTQDPAVSVALGQTVRITCQGDGLRNYFASWYQQKPGQAPVLVIYGKNNRPSGIPDRFSGSSSGNTASLRIAGAQAEDEADYYCNSRDGSGKHLVFGGGTKLTV
notes: The format used in the Octet assay is not restated (captured via Fc); also called Yu139-CO1
B2: YU139-A03 (Fc fusion)
VH: QVQLVQSGGGVVQPGRSLRLSCAASGFTFSSYGIHWVRQAPGKGLEWVAIVSYDGRHKYYADSVKGRFTISRDDSKNTIYLQMDSLRAEDTAVYYCAKDSGNSGLEGIHDYWGQGTLVTVSS
VL: DVVMTQSPSSVSASVGDRVTITCRASQGISSWLAWYQQKPGKAPKLLIYAASSLQSGVPSRFSGSGSGTDFTLTISSLQPEDFGTYYCQQANSFPLTFGGGTKVEIK
notes: The format used in the Octet assay is not restated (captured via Fc)
B3: YU139-G03 (Fc fusion)
VH: QVQLQQSGAEVKKPGSSVKVSCKASGGIFSTYVTSWVRQAPGQGLEWMGGIIPMFDTTEYAQKLEGRVTITVDESTNTAYMELSSLRFEDTAVYYCARAGGLSHFDYWGQGTLVTVSS
VL: EIVLTQSPLSLPVTPGEPASISCRSSQSLLHSNGNNYLNWYLQKPGQSPQLLIYLSSRRASGVPDRFSGSGSGTDFTLKISRVEAEDVGVYYCMQGLQTPWTFGQGTKVETK
B4: YU139-H03 (Fc fusion)
VH: QVQLVQSGAEVKKPGASVKVSCKASGYTFTSYGISWVRQAPGQGLEWMGWISAYNGNTNYAQKLQGRVTMTTDTSTSTAYMELRSLRSDDTAVYYCARVKWELGWAFDIWGQGTMVTVSS
VL: QAVLTQPPSVSGAPGQRVTISCTGSSSNIGAGYDVHWYQQLPGTAPKLLIYGNSNRPSGVPDRFSGSKSGTSAPLAITGLQAEDEADYYCQSYDSSLSTVFGGGTKLTVL
notes: as for B2
B5: YU139-D02 (Fc fusion)
VH: EVQLVESGGGVVQPGRSLRLSCAASGFTFSSYGMHWVRQAPGKGLEWVAVISYDGSNKYYADSVKGRFTISRDNSKNTLYLQMNSLRAEDTAVYYCAKDNGDYGYYYYYYMDVWGKGTTVTVSS
VL: DIQMTQSPSTLSASVGDRVTITCRASQSISRWLAWYQQKPGKAPKLLIYDASSLESGVPSRFSGSGSGTEFTLTISSLQPDDFATYYCQQSYSTPLTFGPGTKVDIK
B6: YU139-D03 (Fc fusion)
VH: QVQLVQSGAEVKKPGASVKVSCKASGYTFSDYGISWVRQAPGQGLEWMGWISGDNVKTTYAKKFQGRVTLTTDTSTSTAYMELRSLTSDDTAAYYCARGGIVFDYWGQGTLVTVSS
VL: ETTLTQSPGTLSLSPGERATLSCRASQSVSGNYLAWYQQKPGQPPRLLIFGASSRATGIPDRFSGSGSGTDFTLTISRLEPEDFGVYYCQQYGSSPGTFGQGTKVEIK
B7: YU139-G01 (Fc fusion)
VH: QMQLVQSGAEVKMPGASVKVSCKASGYTFTSYGISWVRQAPGQGLEWMGWISAYNGNTYYAQKLQGRVTMTADTSTSTAYMDLRSLRSDDTAVYYCARLSYYNYAMDVWGQGTTVTVSS
VL: QSALTQPPSASGSPGQSVTISCTGTSSDVGGYNHVSWYQQHPGKAPKLMIYEVSNRPSGVPNRFSGSKSGNTASLTISGLQAEDEADYYCSSYTSSNTWVFGGGTKLTVL
B8: YU139-A02 (Fc fusion)
VH: QVQLVQSGAEVKKPGSSVKVSCKASGGTFSSYAISWVRQAPGQGLEWMGGIIPIFGTANYAQKFQGRVTITADESTSTAYMELSSLRSEDTAVYYCARDYYDSSGYYFDAFDIWGQGTMVTVSS
VL: QAGLTQPPSASGTPGQRVIISCSGSSSNIGTNTVSWYQHLPGTAPKLLIYNNNERPSGVPRRFSGSRSGASASLAISGLQSDDEAHYYCAAWDDNLTGLVFGGGTKLTVL
B9: YU139-B01 (Fc fusion)
VH: QVQLQESGPGLVKPSGTLSLTCAVSGGSISSSNWWSWVRQPPGKGLEWIGEVYHSGSTNYNPSLKSRVTISVDKSKNQFSLKLSSVTAADTAVYYCARNIPLSSSWPNYYYYYGMDVWGQGTTVTVSS
VL: B1 VL with G26S, F31Y, R73T, A75N, G92S, G94A, L97W
B10: ecto-TMEM219 (receptor)
chain: THRTGLRSPDIPQDWVSFLRSFGQLTLCPRNGTVTGKWRGSHVVGLLTTLNFGDGPDRNKTRTFQATVLGSQMGLKGSSAGQLVLITARVTTERTAGTCLYFSAVPGILPSSQPPISCSEEGAGNATLSPRMGEECVSVWSHEGLVLTKLLTSEELALCGSR
notes: it is put last here only for want of better knowledge; also called EctoTMEM-His; extracellular domain of TMEM219; not shown: His tag (detected with anti 6xHis tag HRP)

Assays:
Recombinant human IGFBP3 [1] = biological target: T1, Recombinant human IGFBP3 (human, UniProt P17936 28-291); experiment: cell-based or functional assay
T1 sequence (P17936 28-291 limits assumed): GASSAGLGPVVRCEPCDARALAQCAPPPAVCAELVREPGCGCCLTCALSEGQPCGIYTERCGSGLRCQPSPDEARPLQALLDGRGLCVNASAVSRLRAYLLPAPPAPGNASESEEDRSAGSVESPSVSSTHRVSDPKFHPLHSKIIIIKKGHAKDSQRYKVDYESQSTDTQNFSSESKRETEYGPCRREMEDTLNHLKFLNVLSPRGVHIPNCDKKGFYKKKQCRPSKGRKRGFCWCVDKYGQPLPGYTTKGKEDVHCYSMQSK

Recombinant human IGFBP3 [2] = biological target: T1, Recombinant human IGFBP3; experiment: BLI (Octet/BLItz), antibody captured via Fc on AHC biosensor, antigen in solution
Description: (§1) To assess the binding affinity in more detail, affinity measurements were performed using Biomolecular Interaction Analysis performed by an Octet instrument (BLItz System), which is a Biolayer Interferometry (BLI) platform. To establish the assay, the target monoclonal antibody (30 μg/ml in 1% BSA-PBST) was immobilized via Fc on the via AHC biosensor and the interaction with the antigen human IGFBP3 (R&D, cat n° 675 B3) and mouse IGFBP3 (Creative Biomart, cat n° igfbp3 829M) at different concentration was measured.

mouse IGFBP3 [3] = biological target: T2, mouse IGFBP3 (mouse, UniProt P47878 28-292, limits assumed); experiment: as above
T2 construct: Bought protein; also called mIGFBP-3; murine IGFBP3
T2 sequence (P47878 28-292 limits assumed): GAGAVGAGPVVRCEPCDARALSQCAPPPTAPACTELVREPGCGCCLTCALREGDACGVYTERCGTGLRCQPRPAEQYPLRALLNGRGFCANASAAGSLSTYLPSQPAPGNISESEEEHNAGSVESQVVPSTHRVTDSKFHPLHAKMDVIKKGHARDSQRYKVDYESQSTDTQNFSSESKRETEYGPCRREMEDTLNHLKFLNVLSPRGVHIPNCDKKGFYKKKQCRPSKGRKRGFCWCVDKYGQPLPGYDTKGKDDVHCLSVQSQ
Description: as §1

Recombinant human IGFBP3 [4] = biological target: T1, Recombinant human IGFBP3; experiment: competitive ELISA: plate coated with rhIGFBP3 4 µg/ml; ecto-TMEM219 10 µg/ml added with the antibody (10 µg/ml per paragraph 174); detection anti-HisTag HRP; blocked ligand: ecto-TMEM219
Description: FIG. 5. IGFBP3-Ecto-TMEM219 binding in the presence of newly generated anti-IGFBP3 mAbs (n=11, YU139 antibodies) or Ecto-TMEM219 alone or monoclonal anti-IGFBP3 commercially available (LSBIO LS-C45037/clone 83.8F9, mAnti-IGFBP3) tested by using a competitive ELISA screening assay. In this assay, the microtiter plate was coated with rhlGFBP3, and labeled ecto-TMEM219 added. Each candidate monoclonal antibody was added and its ability to displace ecto-TMEM219 was assessed by measuring Absorbance after the plate was washed. Boxed are anti-IGFBP3 antibodies able to achieve the highest reduction in Ecto-TMEM219 signal (1-way ANOVA, p<0.00001).
Microplate was coated with 50 μl/well of 4 μg/ml rhlGFBP3 dissolved in PBS or PBS alone (no coating). Plate was incubated 90 minutes at 37° C. and washed with PBS (300 μl/well) and incubated with the blocking reagent (200 μl/well) 2 hours at room temperature. Samples were then diluted in the diluent solution (50 μl/well) and added to the plate as follows: diluent solution (none), ecto-TMEM 10 μg/ml, ecto-TMEM 10 μg/ml+anti-IGFBP3 mAbs 10 μg/ml, anti-IGFBP3 mAbs 10 μg/ml alone. After washing steps, plate was then incubated at room temperature for 1 hour with anti 6×His tag HRP diluted 1:2000 in Diluent solution (50 μl/well). ELISA plate was then read after adding visualization solution at ELISAreader and adsorbance was measured.

Recombinant human IGFBP3 [5] = biological target: T1, Recombinant human IGFBP3; experiment: ELISA: rhIGFBP3 2 µg/ml coated directly; scFv-Fc titrated 0.01-10 µg/ml; detection goat anti-human Fc-HRP, Abs 450 nm
Description: CVC microplates were coated with: i) 100 μl/well of 2 μg/ml rhIGFBP3 dissolved in PBS or PBS alone (no coating) and incubated 60 minutes at RT; ii) 100 μl/well of 2 μg/ml anti-IGFBP3 (LS-C45037 LSBio) and incubated o.n at 4° C. Plates were washed with H₂O-Tween20 (0.05%) and incubated with the blocking reagent (2% BSA-PBS-T (0.05%)). For condition ii) 100 μl/well of 2 μg/ml rhIGFBP3 was incubated o.n at 4° C. After washing the newly generated antibodies (in 2% BSA-PBS-T (0.05%)) were titrated onto the plate and incubated for 1 hour at RT. After washing steps, detection of bound antibodies was performed using a goat anti-human Fc-HRP antibody (Sigma A0170) in 2% BPS-PBS-T (0.05%) followed by washing and read out with TMB (100 μl/well). ELISA plates were then read measuring the absorbance at 450 nm.

Recombinant human IGFBP3 [6] = biological target: T1, Recombinant human IGFBP3; experiment: BLI (Octet/BLItz)
mouse IGFBP3 [7] = biological target: T2, mouse IGFBP3; experiment: BLI (Octet/BLItz)

| expression of ISCs markers EphB2 and LGR5 (RT-PCR) in IGFBP3-treated mini-guts (Recombinant human IGFBP3 [1]) [%] | Kd (Recombinant human IGFBP3 [2]) [nM] | binding result (Recombinant human IGFBP3 [4]) | further results | Binder |
| --- | --- | --- | --- | --- |
| ≥ 50 | 1.69 |  | Kd (mouse IGFBP3 [3]): 342 nM | B1 |
| ≥ 50 | 328 |  | Kd (mouse IGFBP3 [3]): 735 nM | B2 |
| ≥ 50 |  |  |  | B3 |
| ≥ 50 | 4000 |  |  | B4 |
|  |  | binds |  | B5 |
|  |  | binds |  | B6 |
|  |  |  | binding result (Recombinant human IGFBP3 [5]): binds | B7 |
|  |  |  | binding result (Recombinant human IGFBP3 [5]): binds | B8 |
|  |  | binds |  | B9 |
|  |  |  | Kd (Recombinant human IGFBP3 [6]): 35 nM; Kd (mouse IGFBP3 [7]): 60 nM | B10 |
